{
  "source": "patent US20150111822A1",
  "about": "(OTTAWA HOSPITAL RESEARCH INSTITUTE, published 2015)",
  "biological_target": "T1, endogenous Fzd7 on activated mouse satellite cells (mouse, UniProt Q61090 33-572)",
  "T1 construct": "whole, on cells; also called Frizzled7; Wnt7a receptor Fzd7",
  "test": "in-situ proximity ligation assay (PLA) on activated satellite cells on cultured myofibers; signal abolished by siSdc4",
  "procedure": "A) Co-IP of Sdc4 with the Wnt7a receptor Fzd7 from satellite cell derived primary myoblasts overexpressing (OE) Fzd7-Flag and Sdc4-YFP. Co-IP was performed with an anti-YFP antibody or with an IgG control. B) Proximity ligation assay (PLA) of Sdc4 and Fzd7 in activated satellite cells after 42 hours of fiber culture. […] Scale bar=5 μm. C) Proximity ligation assay (PLA) of Sdc4 and FN in activated satellite cells after 42 hours of fiber culture. […] Scale bar=5 μm. D) Co-IP of Fzd7 with FN from satellite cell derived primary myoblasts overexpressing (OE) Fzd7-Flag and FN. Co-IP was performed with an anti-YFP antibody. siRNA knockdown of endogenous Sdc4 (siSdc4) prevented Co-IP of FN with Fzd7 when compared to siSCR. E) Co-IP of Sdc4 with Wnt7a from satellite cell derived primary myoblasts that overexpress (OE) Sdc4-YFP and Wnt7a-HA. Co-IP was performed with an anti-flag antibody. siRNA knockdown of endogenous Fzd7 prevented Co-IP of Sdc4 with Wnt7a. F) Rac1 activation assay. Total Rac1 is shown as a loading control. Densitometric quantification represents average grey values±SEM after subtraction of the background and normalization to total Rac1. The average grey value obtained for empty vector (EV) was set to 100%, n=3, p values are ***p<0.001, **p<0.01, *p<0.05.\nMouse Fzd7 immunoprecipitated with mouse Sdc4 in mammalian myogenic cells. […]",
  "data": [
    {"binder": "endogenous Syndecan 4 (Sdc4) on mouse satellite cells and primary myoblasts (receptor, UniProt O35988 24-198, looked up, whole, on cells; also called FN receptor Sdc4) ESIRETEVIDPQDLLEGRYFSGALPDDEDAGGSDDFELSGSGDLDDTEEPRPFPEVIEPLVPLDNHIPENAQPGIRVPSEPKELEENEVIPKRAPSDVGDDMSNKVSMSSTAQGSNIFERTEVLAALIVGGVVGILFAVFLILLLVYRMKKKDEGSYDLGKKPIYKKAPTNEFYA", "values": [
      {"measurement": "binding result", "result": "binds"}
    ]}
  ]
}
